Earlier results on 1 substance are cited in article PMC9590617.

One series deals with NPFFR1 (Homo sapiens) (UniProt Q9GZQ6).
The target in another series is NPFFR2 (Homo sapiens) (UniProt Q9Y5X5).
Sequence of UniProt Q9Y5X5 (Q9Y5X5 whole entry): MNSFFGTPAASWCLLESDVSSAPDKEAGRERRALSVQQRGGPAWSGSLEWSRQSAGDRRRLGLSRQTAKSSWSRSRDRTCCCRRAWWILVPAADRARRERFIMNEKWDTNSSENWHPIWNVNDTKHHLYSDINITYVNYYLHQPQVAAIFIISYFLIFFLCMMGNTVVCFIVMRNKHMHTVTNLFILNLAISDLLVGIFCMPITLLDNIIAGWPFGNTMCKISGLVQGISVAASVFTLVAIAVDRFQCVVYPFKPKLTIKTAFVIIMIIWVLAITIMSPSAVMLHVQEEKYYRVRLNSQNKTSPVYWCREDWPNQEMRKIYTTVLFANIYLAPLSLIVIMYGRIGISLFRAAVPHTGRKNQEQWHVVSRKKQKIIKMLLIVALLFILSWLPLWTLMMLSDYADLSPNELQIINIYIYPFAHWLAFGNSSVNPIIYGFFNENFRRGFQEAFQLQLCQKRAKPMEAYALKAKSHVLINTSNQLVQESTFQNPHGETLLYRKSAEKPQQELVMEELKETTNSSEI

Sequence of UniProt Q9GZQ6 (Q9GZQ6 whole entry): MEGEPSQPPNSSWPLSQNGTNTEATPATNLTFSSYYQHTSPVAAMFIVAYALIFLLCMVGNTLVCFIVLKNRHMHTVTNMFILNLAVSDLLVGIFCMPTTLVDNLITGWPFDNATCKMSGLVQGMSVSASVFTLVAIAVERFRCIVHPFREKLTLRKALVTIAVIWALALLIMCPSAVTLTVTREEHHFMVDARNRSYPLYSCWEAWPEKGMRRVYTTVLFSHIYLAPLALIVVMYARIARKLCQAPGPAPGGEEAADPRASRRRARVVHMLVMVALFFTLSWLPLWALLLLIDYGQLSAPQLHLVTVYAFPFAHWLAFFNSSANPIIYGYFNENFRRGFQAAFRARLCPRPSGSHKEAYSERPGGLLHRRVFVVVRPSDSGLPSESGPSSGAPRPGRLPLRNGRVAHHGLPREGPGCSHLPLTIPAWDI

Turning to Neuropeptide FF (from UniProt O15130), the figures for the Kd in the series with NPFFR1 (Homo sapiens) and with NPFFR2 (Homo sapiens) were 1.13 nM and 0.37 nM, respectively.

Broadly, the Kd is the concentration at which binding is half-saturated.
